Reference: the supplement of paper PMC10567573

B1: EPB41L3 (parent)
chain: GSKFRYSGRTQAQTRRASALIDRP

Variants of: B1
Assay: protein stability index of a GFP-peptide fusion (GPS, HEK-293T) (PSI 1-6); higher = more stable
Conditions: c terminus: a fixed tail appended
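Note: lentivirally expressed fusions sorted by FACS into six bins by GFP to DsRed ratio, PSI derived from sequencing read proportions per bin multiplied by bin number.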

Protein stability index: each site, then its substitutions
S7: I 1.95 | K 3.79 | L 3.08 | M 3.35 | N 3.05 | P 3.36 | Q 2.86 | R 3.73 | T 2.95 | V 2.15 | W 2.4 | Y 2.71
G8: A 3.41 | C 1.72 | D 3.02 | E 3.52 | F 2.96 | H 2.95 | I 2.93 | K 3.44 | L 3.44 | M 3.88 | N 3.13 | P 3.43 | Q 3.39 | R 4.01 | S 3.46 | T 4.1 | V 3.07 | W 2.1 | Y 2.7
R9: A 2.88 | C 2.94 | D 3.52 | E 3.53 | F 2.81 | G 3.32 | H 2.93 | I 2.81 | K 2.97 | L 2.92 | M 2.85 | N 3.7 | P 3.87 | Q 3.32 | S 3.44 | T 3.01 | V 2.85 | W 2.33 | Y 2.4
T10: A 2.97 | C 1.97 | D 3.56 | E 3.01 | F 2.68 | G 3.66 | H 3.27 | I 2.37 | K 3.89 | L 3.1 | M 2.39 | N 3.19 | P 3.74 | Q 3.1 | R 3.62 | S 2.83 | V 2.84 | W 1.82 | Y 2.39
Q11: A 2.86 | C 2.6 | D 3.09 | E 3.29 | F 2.45 | G 3.16 | H 2.85 | I 2.95 | K 3.11 | L 2.5 | M 1.94 | N 3 | P 3.46 | R 3.78 | S 2.18 | T 2.57 | V 2.78 | W 1.75 | Y 2.64
A12: C 3.32 | D 3.37 | E 3.2 | F 2.04 | G 3.11 | H 2.82 | I 3.07 | K 3.15 | L 3.38 | M 2.73 | N 3.08 | P 3.17 | Q 3.06 | R 3.42 | S 3.41 | T 2.93 | V 1.93 | W 2.25 | Y 2.89
Q13: A 2.84 | C 2.98 | D 3.08 | E 3.27 | F 2.69 | G 3.49 | H 2.65 | I 2.9 | K 3.19 | L 2.91 | M 2.47 | N 3.39 | P 2.69 | R 3.25 | S 3.27 | T 2.73 | V 3.53 | W 1.97 | Y 2.46
T14: A 3.25 | C 1.88 | D 3.41 | E 3.21 | F 2.8 | G 3.17 | H 2.77 | I 2.69 | K 3.44 | L 2.7 | M 2.29 | N 3.72 | P 2.62 | Q 2.81 | R 3.44 | S 2.67 | V 3.19 | W 2.22 | Y 2.73
R15: A 3.25 | C 2.06 | D 3.2 | E 3.57 | F 2.44 | G 2.81 | H 2.97 | I 2.66 | K 2.83 | L 2.64 | M 3.21 | N 3.68 | P 3.3 | Q 2.9 | S 2.81 | T 3.58 | V 2.99 | W 2.45 | Y 2.54
R16: A 2.63 | C 2.52 | D 3.56 | E 3.34 | F 2.9 | G 3.87 | H 3.32 | I 2.72 | K 2.83 | L 3.11 | M 2.67 | N 3.42 | P 3.15 | Q 3.31 | S 3.08 | T 3.4 | V 2.34 | W 2.41 | Y 2.78
A17: C 2.09 | D 3.41 | E 3.54 | F 2.52 | G 3.22 | H 2.57 | I 3.25 | K 3.16 | L 2.65 | M 3.02 | N 3.19 | P 2.96 | Q 3.58 | R 3.25 | S 3.12 | T 2.99 | V 2.66 | W 2.21 | Y 2.54
S18: A 3.02 | C 2.5 | D 3.52 | E 3.62 | F 2.16 | G 3.54 | H 3.42 | I 2.7 | K 3.29 | L 3.01 | M 2.71 | N 3.25 | P 3.73 | Q 3.19 | R 3.08 | T 2.29 | V 2.85 | W 2.58 | Y 2.27
A19: C 2.74 | D 3.6 | E 3.28 | F 2.41 | G 2.91 | H 3.26 | I 3.04 | K 3.39 | L 3.12 | M 3.07 | N 3.4 | P 2.68 | Q 3.22 | R 3.43 | S 3.41 | T 3.3 | V 2.42 | W 2.45 | Y 2.07
L20: A 3.29 | C 3.12 | D 3.84 | E 3.89 | F 2.65 | G 3.16 | H 3.37 | I 3.19 | K 3.79 | M 3.59 | N 3.78 | P 3.15 | Q 3.79 | R 3.28 | S 3.46 | T 3.62 | V 3.52 | W 3.23 | Y 3.02
I21: A 3.78 | C 2.64 | D 3.58 | E 3.4 | F 2.97 | G 3.9 | H 3.32 | K 3.48 | L 3.17 | M 3.6 | N 3.95 | P 2.71 | Q 3.06 | R 3.71 | S 3 | T 3.21 | V 3.2 | W 2.4 | Y 2.73
D22: A 2.63 | C 2.99 | E 3.72 | F 3.4 | G 2.67 | H 3.7 | I 2.83 | K 2.7 | L 2.99 | M 2.69 | N 2.82 | P 3.09 | Q 3.54 | R 3.45 | S 3.11 | T 3.02 | V 2.66 | W 2.72 | Y 2.29
R23: A 2.81 | C 2.89 | D 3.44 | E 3.32 | F 2.69 | G 3.01 | H 3.16 | I 2.11 | K 2.94 | L 2.71 | M 2.41 | N 2.67 | P 3.02 | Q 3.12 | S 3.01 | T 2.58 | V 2.67 | W 2.77 | Y 2.5
P24: A 2.57 | C 3.06 | D 3.56 | E 3.19 | F 3.05 | G 3.32 | H 3.47 | I 2.71 | K 3.44 | L 2.56 | M 3 | N 2.8 | Q 2.79 | R 3.54 | S 2.8 | T 3.05 | V 3.05 | W 2.32 | Y 2.78
